Laboratory results published in the supplement of paper PMC10567573.

B1: UBE2R2 (parent)
chain: DPQSGELPSERWNPTQNVRTILLS
B2: SPOPL (parent)
chain: YTGRAPNLDKMADNLLAAADKYAL

Variants of: B1
Experiment: protein stability index of a GFP-peptide fusion (GPS, HEK-293T) (PSI 1-6); higher = more stable
Details: c terminus: a fixed tail appended
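Note: lentivirally expressed fusions sorted by FACS into six bins by GFP to DsRed ratio, PSI derived from sequencing read proportions per bin multiplied by bin number.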

Variant	protein stability index
DNQSGELPSERWNPTQNVRTILLS [P2N]	3.35
DLQSGELPSERWNPTQNVRTILLS [P2L]	2.99
DTQSGELPSERWNPTQNVRTILLS [P2T]	3.52
DRQSGELPSERWNPTQNVRTILLS [P2R]	3.09
DHQSGELPSERWNPTQNVRTILLS [P2H]	2.88
DMQSGELPSERWNPTQNVRTILLS [P2M]	3.16
DKQSGELPSERWNPTQNVRTILLS [P2K]	3.95
DGQSGELPSERWNPTQNVRTILLS [P2G]	3.06
DQQSGELPSERWNPTQNVRTILLS [P2Q]	3.22
DFQSGELPSERWNPTQNVRTILLS [P2F]	2.81
DAQSGELPSERWNPTQNVRTILLS [P2A]	3.66
DEQSGELPSERWNPTQNVRTILLS [P2E]	3.59
DVQSGELPSERWNPTQNVRTILLS [P2V]	3.61
DWQSGELPSERWNPTQNVRTILLS [P2W]	2.34
DIQSGELPSERWNPTQNVRTILLS [P2I]	2.5
FPQSGELPSERWNPTQNVRTILLS [D1F]	2.58
LPQSGELPSERWNPTQNVRTILLS [D1L]	3.58
RPQSGELPSERWNPTQNVRTILLS [D1R]	3.17
NPQSGELPSERWNPTQNVRTILLS [D1N]	3.09
GPQSGELPSERWNPTQNVRTILLS [D1G]	3.26
EPQSGELPSERWNPTQNVRTILLS [D1E]	3.31
APQSGELPSERWNPTQNVRTILLS [D1A]	2.69
SPQSGELPSERWNPTQNVRTILLS [D1S]	2.25
IPQSGELPSERWNPTQNVRTILLS [D1I]	2.67

Variant	protein stability index
VPQSGELPSERWNPTQNVRTILLS [D1V]	2.35
HPQSGELPSERWNPTQNVRTILLS [D1H]	3.34
CPQSGELPSERWNPTQNVRTILLS [D1C]	3.93
QPQSGELPSERWNPTQNVRTILLS [D1Q]	3.88
KPQSGELPSERWNPTQNVRTILLS [D1K]	3.7
TPQSGELPSERWNPTQNVRTILLS [D1T]	2.63
DPQSGALPSERWNPTQNVRTILLS [E6A]	3.13
DPQSGQLPSERWNPTQNVRTILLS [E6Q]	3.49
DPQSGCLPSERWNPTQNVRTILLS [E6C]	3.02
DPQSGHLPSERWNPTQNVRTILLS [E6H]	3.25
DPQSGILPSERWNPTQNVRTILLS [E6I]	3.24
DPQSGKLPSERWNPTQNVRTILLS [E6K]	2.79
DPQSGGLPSERWNPTQNVRTILLS [E6G]	3.3
DPQSGNLPSERWNPTQNVRTILLS [E6N]	3.48
DPQSGLLPSERWNPTQNVRTILLS [E6L]	2.61
DPQSGDLPSERWNPTQNVRTILLS [E6D]	3.44
DPQSGPLPSERWNPTQNVRTILLS [E6P]	2.8
DPQSGFLPSERWNPTQNVRTILLS [E6F]	2.3
DPQSGMLPSERWNPTQNVRTILLS [E6M]	2.88
DPPSGELPSERWNPTQNVRTILLS [Q3P]	3.01
DPNSGELPSERWNPTQNVRTILLS [Q3N]	3.45
DPSSGELPSERWNPTQNVRTILLS [Q3S]	3.41
DPGSGELPSERWNPTQNVRTILLS [Q3G]	3.79
DPASGELPSERWNPTQNVRTILLS [Q3A]	3.67

Variant	protein stability index
DPYSGELPSERWNPTQNVRTILLS [Q3Y]	2.42
DPLSGELPSERWNPTQNVRTILLS [Q3L]	3.65
DPTSGELPSERWNPTQNVRTILLS [Q3T]	4.11
DPESGELPSERWNPTQNVRTILLS [Q3E]	3.82
DPFSGELPSERWNPTQNVRTILLS [Q3F]	4.05
DPISGELPSERWNPTQNVRTILLS [Q3I]	3.24
DPCSGELPSERWNPTQNVRTILLS [Q3C]	3.81
DPMSGELPSERWNPTQNVRTILLS [Q3M]	3.53
DPDSGELPSERWNPTQNVRTILLS [Q3D]	3.9
DPKSGELPSERWNPTQNVRTILLS [Q3K]	3.06
DPRSGELPSERWNPTQNVRTILLS [Q3R]	3.4
DPHSGELPSERWNPTQNVRTILLS [Q3H]	3.22
DPQSAELPSERWNPTQNVRTILLS [G5A]	3.21
DPQSRELPSERWNPTQNVRTILLS [G5R]	3.45
DPQSHELPSERWNPTQNVRTILLS [G5H]	3.83
DPQSWELPSERWNPTQNVRTILLS [G5W]	2.6
DPQSNELPSERWNPTQNVRTILLS [G5N]	3.96
DPQSMELPSERWNPTQNVRTILLS [G5M]	3.41
DPQSCELPSERWNPTQNVRTILLS [G5C]	2.8
DPQSDELPSERWNPTQNVRTILLS [G5D]	3.98
DPQSIELPSERWNPTQNVRTILLS [G5I]	3.24
DPQSKELPSERWNPTQNVRTILLS [G5K]	3.49
DPQSVELPSERWNPTQNVRTILLS [G5V]	3.27
DPQSLELPSERWNPTQNVRTILLS [G5L]	3.53

Variant	protein stability index
DPQSSELPSERWNPTQNVRTILLS [G5S]	3.61
DPQSFELPSERWNPTQNVRTILLS [G5F]	3.18
DPQSTELPSERWNPTQNVRTILLS [G5T]	3.93
DPQSYELPSERWNPTQNVRTILLS [G5Y]	3.17
DPQSQELPSERWNPTQNVRTILLS [G5Q]	3.77
DPQSPELPSERWNPTQNVRTILLS [G5P]	2.66
DPQSEELPSERWNPTQNVRTILLS [G5E]	4.5
DPQQGELPSERWNPTQNVRTILLS [S4Q]	3.68
DPQLGELPSERWNPTQNVRTILLS [S4L]	3.6
DPQDGELPSERWNPTQNVRTILLS [S4D]	3.79
DPQMGELPSERWNPTQNVRTILLS [S4M]	2.95
DPQAGELPSERWNPTQNVRTILLS [S4A]	3.15
DPQHGELPSERWNPTQNVRTILLS [S4H]	3.45
DPQIGELPSERWNPTQNVRTILLS [S4I]	3.4
DPQYGELPSERWNPTQNVRTILLS [S4Y]	2.39
DPQNGELPSERWNPTQNVRTILLS [S4N]	2.99
DPQCGELPSERWNPTQNVRTILLS [S4C]	3.61
DPQFGELPSERWNPTQNVRTILLS [S4F]	3.49
DPQVGELPSERWNPTQNVRTILLS [S4V]	3.41
DPQPGELPSERWNPTQNVRTILLS [S4P]	3.02
DPQTGELPSERWNPTQNVRTILLS [S4T]	3.16
DPQKGELPSERWNPTQNVRTILLS [S4K]	3.75
DPQRGELPSERWNPTQNVRTILLS [S4R]	3.87

Variants of: B2
Experiment: as above
Details: c terminus: a fixed tail appended

Variant	protein stability index
YTGRAPNLDKMADNLLAAADKYAE [L24E]	3.11
YTGRAPNLDKMADNLLAAADKYAS [L24S]	2.73
YTGRAPNLDKMADNLLAAADKYAW [L24W]	1.86
YTGRAPNLDKMADNLLAAADKYAK [L24K]	2.55
YTGRAPNLDKMADNLLAAADKYAG [L24G]	2.78
YTGRAPNLDKMADNLLAAADKYAH [L24H]	2.49
YTGRAPNLDKMADNLLAAADKYAV [L24V]	2
YTGRAPNLDKMADNLLAAADKYAD [L24D]	3.62
YTGRAPNLDKMADNLLAAADKYAT [L24T]	2.42
YTGRAPNLDKMADNLLAAADKYAQ [L24Q]	2.16
YTGRAPNLDKMADNLLAAADKYAN [L24N]	2.66
YTGRAPNLDKMADNLLAAADKYAF [L24F]	2.01
YTGRAPNLDKMADNLLAAADKYAA [L24A]	2.02
YTGRAPNLDKMADNLLAAADKYAI [L24I]	2.02
YTGRAPNLDKMADNLLAAADKYAP [L24P]	2.17
YTGRAPNLDKMADNLLAAADKYAM [L24M]	2.33
YTGRAPNLDKMADNLLAAADKYAY [L24Y]	1.89
YTGRAPNLDKMADNLLAAADKYAR [L24R]	2.24
YTGRAPNLDKMADNLLAAADKYAC [L24C]	2.37
YTGRAPNLDKMADNLLAAAGKYAL [D20G]	2.29
YTGRAPNLDKMADNLLAAASKYAL [D20S]	1.48
YTGRAPNLDKMADNLLAAAPKYAL [D20P]	1.41
YTGRAPNLDKMADNLLAAACKYAL [D20C]	1.99
YTGRAPNLDKMADNLLAAAIKYAL [D20I]	1.71

Variant	protein stability index
YTGRAPNLDKMADNLLAAANKYAL [D20N]	1.3
YTGRAPNLDKMADNLLAAAHKYAL [D20H]	2.14
YTGRAPNLDKMADNLLAAALKYAL [D20L]	1.84
YTGRAPNLDKMADNLLAAAQKYAL [D20Q]	1.53
YTGRAPNLDKMADNLLAAAFKYAL [D20F]	1.39
YTGRAPNLDKMADNLLAAARKYAL [D20R]	2.57
YTGRAPNLDKMADNLLAAAEKYAL [D20E]	1.61
YTGRAPNLDKMADNLLAAAVKYAL [D20V]	3.92
YTGRAPNLDKMADNLLAAAKKYAL [D20K]	1.4
YTGRAPNLDKMADNLLAAATKYAL [D20T]	2.34
YTGRAPNLDKMADNLLAAAMKYAL [D20M]	2.22
YTGRAPNLDKMADNLLAAADKRAL [Y22R]	3.05
YTGRAPNLDKMADNLLAAADKPAL [Y22P]	2.73
YTGRAPNLDKMADNLLAAADKLAL [Y22L]	1.61
YTGRAPNLDKMADNLLAAADKTAL [Y22T]	2.72
YTGRAPNLDKMADNLLAAADKHAL [Y22H]	2.18
YTGRAPNLDKMADNLLAAADKQAL [Y22Q]	2.17
YTGRAPNLDKMADNLLAAADKKAL [Y22K]	3.07
YTGRAPNLDKMADNLLAAADKVAL [Y22V]	2.27
YTGRAPNLDKMADNLLAAADKGAL [Y22G]	3.2
YTGRAPNLDKMADNLLAAADKIAL [Y22I]	2.22
YTGRAPNLDKMADNLLAAADKSAL [Y22S]	3.66
YTGRAPNLDKMADNLLAAADKMAL [Y22M]	1.93
YTGRAPNLDKMADNLLAAADKEAL [Y22E]	3.04

Variant	protein stability index
YTGRAPNLDKMADNLLAAADKWAL [Y22W]	1.67
YTGRAPNLDKMADNLLAAADKFAL [Y22F]	1.92
YTGRAPNLDKMADNLLAAADKNAL [Y22N]	3.3
YTGRAPNLDKMADNLLAAADKDAL [Y22D]	2.03
YTGRAPNLDKMADNLLAAADVYAL [K21V]	2.53
YTGRAPNLDKMADNLLAAADWYAL [K21W]	2.02
YTGRAPNLDKMADNLLAAADIYAL [K21I]	1.42
YTGRAPNLDKMADNLLAAADLYAL [K21L]	2.02
YTGRAPNLDKMADNLLAAADNYAL [K21N]	2.11
YTGRAPNLDKMADNLLAAADAYAL [K21A]	2.04
YTGRAPNLDKMADNLLAAADCYAL [K21C]	1.88
YTGRAPNLDKMADNLLAAADMYAL [K21M]	1.65
YTGRAPNLDKMADNLLAAADYYAL [K21Y]	1.13
YTGRAPNLDKMADNLLAAADEYAL [K21E]	3.6
YTGRAPNLDKMADNLLAAADQYAL [K21Q]	3.78
YTGRAPNLDKMADNLLAAADDYAL [K21D]	2.36
YTGRAPNLDKMADNLLAAADPYAL [K21P]	2.48
YTGRAPNLDKMADNLLAAADGYAL [K21G]	1.81
YTGRAPNLDKMADNLLAAADSYAL [K21S]	1.92
YTGRAPNLDKMADNLLAAADHYAL [K21H]	1.89
YTGRAPNLDKMADNLLAATDKYAL [A19T]	1.99
YTGRAPNLDKMADNLLAAQDKYAL [A19Q]	2.77
YTGRAPNLDKMADNLLAARDKYAL [A19R]	2.25
YTGRAPNLDKMADNLLAASDKYAL [A19S]	1.65

Variant	protein stability index
YTGRAPNLDKMADNLLAAYDKYAL [A19Y]	2.11
YTGRAPNLDKMADNLLAAWDKYAL [A19W]	1.37
YTGRAPNLDKMADNLLAAADKYFL [A23F]	1.81
YTGRAPNLDKMADNLLAAADKYNL [A23N]	2.3
YTGRAPNLDKMADNLLAAADKYDL [A23D]	2.45
YTGRAPNLDKMADNLLAAADKYKL [A23K]	2.37
YTGRAPNLDKMADNLLAAADKYRL [A23R]	1.91
YTGRAPNLDKMADNLLAAADKYCL [A23C]	2.57
YTGRAPNLDKMADNLLAAADKYQL [A23Q]	2.4
YTGRAPNLDKMADNLLAAADKYPL [A23P]	2.24
YTGRAPNLDKMADNLLAAADKYEL [A23E]	2.77
YTGRAPNLDKMADNLLAAADKYLL [A23L]	1.67
YTGRAPNLDKMADNLLAAADKYTL [A23T]	2.71
YTGRAPNLDKMADNLLAAADKYGL [A23G]	1.83
YTGRAPNLDKMADNLLAAADKYVL [A23V]	1.54
YTGRAPNLDKMADNLLAAADKYSL [A23S]	1.97
YTGRAPNLDKMADNLLAAADKYHL [A23H]	1.78
YTGRAPNLDKMADNLLAAADKYWL [A23W]	1.22
YTGRAPNLDKMADNLLAAADKYIL [A23I]	1.65
YTGRAPNLDKMADNLLAAADKYML [A23M]	2.18
YTGRAPNLDKMADNLLAAADKYYL [A23Y]	2.02
